Read-outs that look alike come from different tables or passages of the source.
Experiments:
[1] = target: T1, ROR1 expressed on cell surface (Jeko-1 cell line, AMB-LC-0003T and AMB-LC-0002T patient-derived lung cancer … (human, UniProt Q01973 30-937)); assay: cell-based or functional assay
[2] = target: T1, ROR1 expressed on cell surface (Jeko-1 …); assay: cell-based or functional assay; remark: listed apart in the source
[3] = target: T2, Ig-like (human, UniProt Q01973); assay: ELISA, IgG on coated domain, OD450
T2 construct: Ig-like domain, His tag; also called Ig-like domain; human ROR1-immunoglobulin domain
T2 sequence (Q01973 39-151 limits assumed): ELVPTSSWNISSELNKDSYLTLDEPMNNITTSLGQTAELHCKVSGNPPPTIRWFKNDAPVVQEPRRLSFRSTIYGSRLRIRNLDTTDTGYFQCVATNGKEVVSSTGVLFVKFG
Procedure: (§1) ELISA was performed to analyze the binding domain using the IgG antibody of the selected clone.
(§2) After washing with PBST and distilled water, binding at room temperature for 1 hour using a goat-derived HRP-conjugated anti-human antibody (Invitrogen, 31482, Goat anti-Human IgG F(ab′)₂ Secondary Antibody, HRP) and then washing again using PBST and distilled water were performed. After color development by adding TMB substrate solution (Thermo Scientific, 34029, 1-Step™ Ultra TMB-ELISA Substrate Solution), the color reaction was stopped with stop solution (Invitrogen, SS04, ELISA Stop Solution), and the absorbance was measured at OD 450 nm. The anti-ROR1 antibody clone binding to each domain was analyzed through ELISA (FIG. 3).

[4] = target: T3, FZD (human, UniProt Q01973); assay: ELISA, IgG on coated domain, OD450
T3 construct: frizzled domain, His tag; also called Frizzled domain; human ROR1-frizzled domain
T3 sequence (Q01973 165-305 limits assumed): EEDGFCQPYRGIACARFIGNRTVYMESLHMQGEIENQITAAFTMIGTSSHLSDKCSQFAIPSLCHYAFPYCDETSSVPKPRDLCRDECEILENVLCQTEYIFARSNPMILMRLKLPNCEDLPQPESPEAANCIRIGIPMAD
Procedure: as §1, §2

[5] = target: T4, FZD+KRD (human, UniProt Q01973); assay: ELISA, IgG on coated domain, OD450
T4 construct: frizzled plus kringle domains, His tag; also called FK domain; human ROR1-frizzled-kringle domain
T4 sequence (Q01973 165-395 limits assumed): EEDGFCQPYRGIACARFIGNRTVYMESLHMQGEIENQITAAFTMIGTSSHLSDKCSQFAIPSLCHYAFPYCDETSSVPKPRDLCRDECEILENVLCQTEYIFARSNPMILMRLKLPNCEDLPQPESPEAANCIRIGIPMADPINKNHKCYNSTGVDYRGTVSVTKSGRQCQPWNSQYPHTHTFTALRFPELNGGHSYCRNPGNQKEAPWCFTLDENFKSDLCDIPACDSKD
Procedure: as §1, §2

[6] = target: T5, human ROR1 (human, UniProt Q01973 30-403, limits assumed); assay: ELISA, IgG on coated human ROR1, OD450
T5 construct: also called human ROR1 protein
T5 sequence (Q01973 30-403 limits assumed): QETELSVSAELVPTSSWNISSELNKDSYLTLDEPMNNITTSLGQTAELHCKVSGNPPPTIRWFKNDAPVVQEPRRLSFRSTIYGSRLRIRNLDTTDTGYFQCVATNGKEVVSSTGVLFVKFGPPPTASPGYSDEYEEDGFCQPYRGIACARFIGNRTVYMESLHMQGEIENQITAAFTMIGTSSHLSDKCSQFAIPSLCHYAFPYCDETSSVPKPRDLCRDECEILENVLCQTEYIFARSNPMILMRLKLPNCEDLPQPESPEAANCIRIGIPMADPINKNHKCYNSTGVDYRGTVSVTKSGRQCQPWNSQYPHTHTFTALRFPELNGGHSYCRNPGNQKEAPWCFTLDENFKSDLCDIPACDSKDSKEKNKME
Procedure: (§3) A 96-well plate was coated at 4° C. for 16 hours with each of human ROR1 and mouse ROR1 proteins at a concentration of 2 μg/ml and then blocked using […]. […] After washing with PBST and distilled water, binding at room temperature for 1 hour using a goat-derived HRP-conjugated anti-human antibody (Invitrogen, 31482, Goat anti-Human IgG F(ab′)₂ Secondary Antibody, HRP) and then washing again using PBST and distilled water were performed. After color development by adding TMB substrate solution (Thermo Scientific, 34029, 1-Step™ Ultra TMB-ELISA Substrate Solution), the color reaction was stopped with stop solution (Invitrogen, SS04, ELISA Stop Solution), and the absorbance was measured at OD 450 nm. It was confirmed that the anti-ROR1 antibody of the present invention and the modified antibody thereof with improved biological and physical properties […] to human ROR1 and mouse ROR1 (FIG. 2).

[7] = target: T5, human ROR1; assay: SPR (Biacore 3000), human ROR1 on CM5 chip, IgG injected, 1:1 Langmuir
Procedure: (§4) To more quantitatively analyze the binding ability of the anti-ROR1 antibody to ROR1, SPR (surface plasmon resonance) was performed. A Biacore 3000 device (GE Healthcare) was used. Using the amine coupling method, human ROR1 or mouse ROR1 was diluted with 10 mM sodium acetate, pH 4.5 and immobilized on a CM5 sensor chip (GE Healthcare) at 300 response units (RU). The activated portion remaining on the surface of the sensor chip was deactivated by adding 1 M ethanolamine-HCl (pH 8.5).

[8] = target: T6, mouse ROR1 (mouse, UniProt Q9Z139 30-403, limits assumed); assay: SPR (Biacore 3000), mouse ROR1 on CM5 chip, IgG injected, 1:1 Langmuir
T6 construct: also called mouse ROR1 protein
T6 sequence (Q9Z139 30-403 limits assumed): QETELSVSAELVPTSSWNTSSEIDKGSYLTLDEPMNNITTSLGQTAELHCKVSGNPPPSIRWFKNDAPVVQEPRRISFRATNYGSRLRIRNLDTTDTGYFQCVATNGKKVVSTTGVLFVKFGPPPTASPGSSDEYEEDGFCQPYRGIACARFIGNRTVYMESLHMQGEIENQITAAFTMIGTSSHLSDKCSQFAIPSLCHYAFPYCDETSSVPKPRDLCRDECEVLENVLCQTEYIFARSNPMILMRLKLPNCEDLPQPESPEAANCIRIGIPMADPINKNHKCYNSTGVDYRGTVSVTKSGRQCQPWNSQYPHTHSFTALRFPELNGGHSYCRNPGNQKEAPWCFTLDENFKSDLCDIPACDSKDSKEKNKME
Procedure: as §4

[9] = target: T6, mouse ROR1; assay: ELISA, IgG on coated mouse ROR1, OD450
Procedure: as §3

T1 sequence (Q01973 30-937): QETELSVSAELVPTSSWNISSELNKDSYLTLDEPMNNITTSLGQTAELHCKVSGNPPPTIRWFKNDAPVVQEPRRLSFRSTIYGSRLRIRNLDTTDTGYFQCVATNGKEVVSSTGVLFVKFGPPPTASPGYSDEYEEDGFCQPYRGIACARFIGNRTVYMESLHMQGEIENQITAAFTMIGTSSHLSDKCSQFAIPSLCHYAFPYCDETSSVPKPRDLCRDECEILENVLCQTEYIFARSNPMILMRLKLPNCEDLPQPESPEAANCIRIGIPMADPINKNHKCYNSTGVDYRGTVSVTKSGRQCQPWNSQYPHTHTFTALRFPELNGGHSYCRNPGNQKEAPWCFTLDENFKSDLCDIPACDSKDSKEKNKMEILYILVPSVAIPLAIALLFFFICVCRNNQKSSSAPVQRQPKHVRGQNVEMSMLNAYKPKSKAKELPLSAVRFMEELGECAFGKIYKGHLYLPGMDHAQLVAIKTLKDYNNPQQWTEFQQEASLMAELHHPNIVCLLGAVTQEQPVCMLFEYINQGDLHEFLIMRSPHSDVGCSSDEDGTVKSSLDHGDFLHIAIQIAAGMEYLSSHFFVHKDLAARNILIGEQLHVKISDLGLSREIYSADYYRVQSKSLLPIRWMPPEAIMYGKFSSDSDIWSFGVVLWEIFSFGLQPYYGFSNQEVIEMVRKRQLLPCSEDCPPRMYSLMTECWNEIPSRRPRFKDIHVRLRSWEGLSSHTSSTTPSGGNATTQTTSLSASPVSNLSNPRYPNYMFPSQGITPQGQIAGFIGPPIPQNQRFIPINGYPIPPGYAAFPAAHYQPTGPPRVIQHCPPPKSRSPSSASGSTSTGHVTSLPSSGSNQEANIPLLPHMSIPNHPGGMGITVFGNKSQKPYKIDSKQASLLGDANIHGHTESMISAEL

Row | Binder | Fold Change of IC50, AMB-LC-0002T/AMB-LC-0003T [1] [fold] | IC50 (nM), spheroid volume after 6 days of treatment, AMB-LC-0003T (high ROR1 expression) [1] [nM] | IC50 (nM), spheroid volume, AMB-LC-0002T (very low ROR1 expression) [1] [nM] | Fold Change of IC50, AMB-LC-0002T/AMB-LC-0003T [2] [fold] | IC50 (nM), spheroid volume, AMB-LC-0002T (low ROR1 expression) [2] [nM] | IC50 (nM), spheroid volume, AMB-LC-0003T (high ROR1 expression) [2] [nM] | binding result [3] | binding result [4] | binding result [5] | EC50 (read off the curve) [6] [nM] | Kd [7] [nM] | koff [7] [s⁻¹] | kon [7] [M⁻¹ s⁻¹] | Kd [8] [nM] | koff [8] [s⁻¹] | kon [8] [M⁻¹ s⁻¹] | EC50 (read off the curve) [9] [nM] | EC50 (read off the curve) [5] [nM]
1 | P015044-vc-PAB-MMAE (antibody, IgG1, V domains shown, maleimidocaproyl-valine-citrulline-p-aminobenzyloxycarbonyl monomethyl auristatin E on cysteine sulfhydryls of reduced disulfides; positions not given; average 3.0 drugs per antibody) VH: EVQLLESGGGLVQPGGSLRLSCAASGFTFSNYAMHWVRQAPGKGLEWVSIIYPDDDTRYNPSFRGRFTISRDNSKNTLYLQMNSLRAEDTAVYYCARDLLYAGDYWGQGTLVTVSS VL: QSVLTQPPSASGTPGQRVTISCGGNNIESKAVHWYQQLPGTAPKLLIYANNKRPSGVPDRFSGSKSGTSASLAISGLRSEDEADYYCQSYDSNKVVFGGGTKLTVL | 22.7 | 5.38 | 122 | 39.7 | 261 | 6.59 | – | – | – | – | – | – | – | – | – | – | – | –
2 | P015043-vcPAB-MMAE (antibody, IgG1, V domains shown, maleimidocaproyl-valine-citrulline-p-aminobenzyloxycarbonyl monomethyl auristatin E on cysteine sulfhydryls of reduced disulfides; positions not given; DAR 3.32) VH: EVQLLESGGGLVQPGGSLRLSCAASGFTFSNYDMSWVRQAPGKGLEWVSWISPGGSSIYYADSVKGRFTISRDNSKNTLYLQMNSLRAEDTAVYYCAKTLTRFDYWGQGTLVTVSS VL: QSVLTQPPSASGTPGQRVTISCTGSSSNIGNNNVSWYQQLPGTAPKLLIYYDSHRPSGVPDRFSGSKSGTSASLAISGLRSEDEADYYCGTWDSSLSGYVFGGGTKLTVL | 4.8 | 34.6 | 165 | – | – | – | – | – | – | – | – | – | – | – | – | – | – | –
3 | P015043 (antibody, V domains shown) VH: EVQLLESGGGLVQPGGSLRLSCAASGFTFSNYDMSWVRQAPGKGLEWVSWISPGGSSIYYADSVKGRFTISRDNSKNTLYLQMNSLRAEDTAVYYCAKTLTRFDYWGQGTLVTVSS VL: QSVLTQPPSASGTPGQRVTISCTGSSSNIGNNNVSWYQQLPGTAPKLLIYYDSHRPSGVPDRFSGSKSGTSASLAISGLRSEDEADYYCGTWDSSLSGYVFGGGTKLTVL | – | – | – | – | – | – | no binding (tested: 300 nM) | – | – | – | – | – | – | – | – | – | – | –
4 | P015001 (antibody, V domains shown) VH: EVQLLESGGGLAQPGGSLRLSCAASGFTFSNYDMSWVRQAPGKGPEWVSGIYSGNSNTYYADSVKGRFTISRDNSKNTLYLQMNSLRAEDTAVYYCARDLQYTEWAGFDYWGQGTLVTVSS VL: QSVLTQPPSASGTPGQRVTISCSGSSSNIGSNDVTWYQQLPGTAPKLLIYDDSKRPSGVPDRFSGSKSGTSASLAISGLRSEDEADYYCAAWDDSLSGYVFGGGTKLTVL | – | – | – | – | – | – | – | no binding (tested: 300 nM) | no binding (tested: 300 nM) | ~1 | 0.63 | 0.00264 | 4.18e+06 | 230 | 0.129 | 564000 | – | –
5 | P015002 (antibody, V domains shown) VH: EVQLLESGGGLVQPGGSLRLSCAASGFTFSDYSMSWVRQAPGKGLEWVSGISHNGGSTYYADSVKGRFTISRDNSKNTLYLQMSSLRAEDTAVYYCARDVSRWSKTRWSYDNAMDVWGQGTLVTVSS VL: QSVLTQPPSASGTPGQRVTISCTGSSSNIGSNYVSWYRQLPGTAPKLLIYSDSNRPSGVPDRFSGSKSGTSASLAISGLRSEDEADYYCATWDASLSAYVFGGGTKLTVL | – | – | – | – | – | – | no binding (tested: 300 nM) | – | – | ~2 | 3.71 | 0.000202 | 54300 | 6 | 0.000278 | 46400 | ~3 | –
6 | P015042v1-3 (antibody, V domains shown, Variant of P015042v1, tested as IgG; also called LC S51 substituted with A) VH: EVQLLESGGGLVQPGGSLRLSCAASGFTFSDYAMSWVRQAPGKGLEWVSVISSDGGSIYYADSVKGRFTISRDNSKNTLYLQMNSLRAEDTAVYYCAKDRSRDMEVDFDYWGQGTLVTVSS VL: QSVLTQPPSASGTPGQRVTISCSGSSSNIGSNYVTWYQQLPGTAPKLLIYDASQRPSGVPDRFSGSKSGTSASLAISGLRSEDEADYYCGTWDYSLNGYVFGGGTKLTVL | – | – | – | – | – | – | – | – | – | ~0.5 | 0.0262 | 7.95e-05 | 3.03e+06 | 0.127 | 0.000548 | 4.3e+06 | ~0.3 | –
7 | P015042v1-2 (antibody, V domains shown, Variant of P015042v1, tested as IgG; also called HC G55 substituted with K) VH: EVQLLESGGGLVQPGGSLRLSCAASGFTFSDYAMSWVRQAPGKGLEWVSVISSDKGSIYYADSVKGRFTISRDNSKNTLYLQMNSLRAEDTAVYYCAKDRSRDMEVDFDYWGQGTLVTVSS VL: QSVLTQPPSASGTPGQRVTISCSGSSSNIGSNYVTWYQQLPGTAPKLLIYDSSQRPSGVPDRFSGSKSGTSASLAISGLRSEDEADYYCGTWDYSLNGYVFGGGTKLTVL | – | – | – | – | – | – | – | – | – | ~0.5 | 0.0152 | 4.08e-05 | 2.66e+06 | 0.0831 | 0.000226 | 2.71e+06 | ~0.3 | –
8 | P015042v1-5 (antibody, V domains shown, Variant of P015042v1, tested as IgG; also called LC G95 substituted with A) VH: EVQLLESGGGLVQPGGSLRLSCAASGFTFSDYAMSWVRQAPGKGLEWVSVISSDGGSIYYADSVKGRFTISRDNSKNTLYLQMNSLRAEDTAVYYCAKDRSRDMEVDFDYWGQGTLVTVSS VL: QSVLTQPPSASGTPGQRVTISCSGSSSNIGSNYVTWYQQLPGTAPKLLIYDSSQRPSGVPDRFSGSKSGTSASLAISGLRSEDEADYYCGTWDYSLNAYVFGGGTKLTVL | – | – | – | – | – | – | – | – | – | ~0.5 | 0.00748 | 1.89e-05 | 2.53e+06 | 0.0416 | 0.000106 | 2.54e+06 | ~0.3 | –
9 | P015042v1-1 (antibody, V domains shown, Variant of P015042v1, tested as IgG; also called HC G55 substituted with V) VH: EVQLLESGGGLVQPGGSLRLSCAASGFTFSDYAMSWVRQAPGKGLEWVSVISSDVGSIYYADSVKGRFTISRDNSKNTLYLQMNSLRAEDTAVYYCAKDRSRDMEVDFDYWGQGTLVTVSS VL: QSVLTQPPSASGTPGQRVTISCSGSSSNIGSNYVTWYQQLPGTAPKLLIYDSSQRPSGVPDRFSGSKSGTSASLAISGLRSEDEADYYCGTWDYSLNGYVFGGGTKLTVL | – | – | – | – | – | – | – | – | – | ~0.5 | 0.033 | 7.22e-05 | 2.19e+06 | 0.192 | 0.00043 | 2.24e+06 | ~0.3 | –
10 | P015005 (antibody, V domains shown) VH: EVQLLESGGGLVQPGGSLRLSCAASGFTFSDYSMSWVRQAPGKGLEWVSGISHNGGSTYYADSVKGRFTISRDNSKNTLYLQMSSLRAEDTAVYYCARDVSRWSKTRWSYDNAMDVWGQGTLVTVSS VL: QSVLTQPPSASGTPGQRVTISCSGSSSNIGSNYVNWYQQLPGTAPKLLIYSDSHRPSGVPDRFSGSKSGTSASLAISGLRSEDEADYYCGSWDSSLNAYVLGGGTKLTVL | – | – | – | – | – | – | no binding (tested: 300 nM) | – | – | ~1 | 0.4 | 6.78e-05 | 169000 | 0.833 | 0.0001 | 120000 | ~1 | ~6
11 | P015042v1-4 (antibody, V domains shown, Variant of P015042v1, tested as IgG; also called LC S51 substituted with K) VH: EVQLLESGGGLVQPGGSLRLSCAASGFTFSDYAMSWVRQAPGKGLEWVSVISSDGGSIYYADSVKGRFTISRDNSKNTLYLQMNSLRAEDTAVYYCAKDRSRDMEVDFDYWGQGTLVTVSS VL: QSVLTQPPSASGTPGQRVTISCSGSSSNIGSNYVTWYQQLPGTAPKLLIYDKSQRPSGVPDRFSGSKSGTSASLAISGLRSEDEADYYCGTWDYSLNGYVFGGGTKLTVL | – | – | – | – | – | – | – | – | – | ~0.5 | 0.0213 | 4.34e-05 | 2.04e+06 | 0.132 | 0.000282 | 2.14e+06 | ~0.3 | –
